This passage reports Kd and IC50 results from the Immune Epitope Database (IEDB).

For orientation: Kd means the concentration at which binding is half-saturated. By IC50 is commonly meant the concentration that inhibits the measured activity by half. A higher IC50 goes with lower potency.

The target of one experiment is HLA-B*46:01. The experiment can be described thus: IEDB peptide-MHC binding, purified MHC/direct/fluorescence; filed as Kd, often an IC50 or EC50 that approximates it; ≥ and ≤ were set here for values at or beyond the usual limits of such assays. The following applies: source organism: West Nile virus.
A further experiment deals with HLA-B*08:01. The experiment can be described thus: IEDB peptide-MHC binding, purified MHC/competitive/radioactivity; filed as Kd, often an IC50 or EC50 that approximates it; ≥ and ≤ were set here for values at or beyond the usual limits of such assays.
The target of the next experiment is HLA-A*30:01. Described as above.
The target in experiment [1] is HLA-A*02:01. The experiment can be described thus: IEDB peptide-MHC binding, purified MHC/direct/fluorescence; filed as Kd, often an IC50 or EC50 that approximates it; ≥ and ≤ were set here for values at or beyond the usual limits of such assays.
Another experiment has as its target HLA-A*03:01. The experiment is described as above.
A further experiment concerns the target HLA-B*07:02. The description is as above. The following applies: source organism: Escherichia coli O157:H7.
A further experiment concerns the target HLA-B*15:01. The experiment is described as above.
The next experiment addresses HLA-B*27:05. The experiment is described as above. The following applies: source organism: Escherichia coli O157:H7.
The next experiment concerns the target HLA-B*58:01. Described as above.
Experiment [2] concerns the target HLA-A*02:01. The experiment is described as follows: IEDB peptide-MHC binding, purified MHC/competitive/fluorescence; ≥ and ≤ were set here for values at or beyond the usual limits of such assays.
The target of experiment [3] is HLA-A*01:01. The experiment can be described thus: IEDB peptide-MHC binding, purified MHC/competitive/radioactivity; filed as Kd, often an IC50 or EC50 that approximates it; ≥ and ≤ were set here for values at or beyond the usual limits of such assays.
For the next experiment, the target named is HLA-A*69:01. The experiment is described as follows: IEDB peptide-MHC binding, purified MHC/direct/fluorescence; filed as Kd, often an IC50 or EC50 that approximates it; ≥ and ≤ were set here for values at or beyond the usual limits of such assays.
In the next experiment the target is HLA-A*31:01. Described as above.
Another experiment addresses HLA-A*26:01. The experiment is described as follows: IEDB peptide-MHC binding, purified MHC/competitive/radioactivity; filed as Kd, often an IC50 or EC50 that approximates it; ≥ and ≤ were set here for values at or beyond the usual limits of such assays.
Another experiment addresses HLA-B*40:01. The experiment is described as follows: IEDB peptide-MHC binding, purified MHC/direct/fluorescence; filed as Kd, often an IC50 or EC50 that approximates it; ≥ and ≤ were set here for values at or beyond the usual limits of such assays. The following applies: source organism: Mycobacterium tuberculosis variant bovis BCG str. Pasteur 1173P2.
The target in experiment [4] is HLA-A*01:01. The experiment is described as above. Conditions: source organism: Coxiella burnetii.
The target in experiment [5] is HLA-A*11:01. The experiment is described as follows: IEDB peptide-MHC binding, purified MHC/competitive/radioactivity; filed as Kd, often an IC50 or EC50 that approximates it; ≥ and ≤ were set here for values at or beyond the usual limits of such assays. The following applies: source organism: Dengue virus 1 Brazil/97-11/1997.
In experiment [6] the target is HLA-A*11:01. The experiment can be described thus: IEDB peptide-MHC binding, purified MHC/direct/fluorescence; filed as Kd, often an IC50 or EC50 that approximates it; ≥ and ≤ were set here for values at or beyond the usual limits of such assays. The following applies: source organism: SARS-CoV1.
A further experiment concerns the target HLA-B*39:01. The experiment can be described thus: IEDB peptide-MHC binding, purified MHC/competitive/fluorescence; filed as Kd, often an IC50 or EC50 that approximates it; ≥ and ≤ were set here for values at or beyond the usual limits of such assays. Conditions: source organism: Bacillus anthracis str. A2012.
Setting [7] is: source organism: Dengue virus 4 Philippines/H241/1956.
The mark [8] stands for this setting: source organism: Vaccinia virus WR.
[9] abbreviates: source organism: Escherichia coli O157:H7.
Where [10] appears, read: source organism: Vaccinia virus Copenhagen.
[11] abbreviates: source organism: Dengue virus 1 Brazil/97-11/1997.
[12] abbreviates: source organism: Haemophilus influenzae.
Where [13] appears, read: source organism: Coxiella burnetii.
[14] abbreviates: source organism: Sudan ebolavirus.
Setting [15] is: source organism: Dengue virus 4 Dominica/814669/1981.
Setting [16] is: source organism: Salmonella enterica.
Where [17] appears, read: source organism: Brucella melitensis.
Where [18] appears, read: source organism: Rickettsia prowazekii.

For LLVAPAYSF, the Kd with HLA-B*46:01 was ≥ 20 µM.
With IIGRRLQRL, in the experiment with HLA-B*08:01 (setting [7]), the Kd came out at 128 nM.
For RYRMHPMSK, in the experiment with HLA-A*30:01 (setting [8]), the Kd amounted to 0.0676 nM.
Turning to ETWVETWAF, the Kd in the experiment with HLA-A*02:01 [1] (setting [9]) is ≥ 20000 nM; in the experiment with HLA-A*03:01 (setting [9]), ≥ 20 µM; with HLA-B*07:02, ≥ 20 µM; with HLA-B*15:01 (setting [9]) it was 1170 nM; with HLA-B*27:05, ≥ 20 µM; with HLA-B*58:01 (setting [9]), 3000 nM.
For the sequence LFLRRRCPL, the Kd with HLA-B*08:01 (setting [10]) amounted to 0.125 nM.
As for GLFLTTEAV, the IC50 with HLA-A*02:01 [2] (source organism: Mycobacterium tuberculosis) turned out to be 0.05 µM.
As to RTICTLPYL, the Kd with HLA-A*30:01 (setting [8]) worked out at 0.738 nM.
Consider SRRYRCSFA, for which the Kd with HLA-B*08:01 (setting [8]) was found to be 52.3 nM.
Consider FTNMEVQLI, for which the Kd in the experiment with HLA-A*01:01 [3] (setting [11]) was determined as 5.85 µM.
For HVLMHSPLV, the dissociation constant Kd with HLA-A*30:01 (setting [8]) was determined as 29.9 nM.
Take ILWGYGFLQ: the results for the Kd in the experiment with HLA-A*02:01 [1] (setting [12]), with HLA-A*69:01 (setting [12]) and in the experiment with HLA-B*58:01 (setting [12]) were 218 nM, 12.9 µM and 4790 nM, respectively.
Consider GMHMVAGHD, for which, in the experiment with HLA-A*02:01 [2] (source organism: Zaire ebolavirus), the IC50 came out at 67.8 µM.
Consider PTWFGISFR, for which the Kd in the experiment with HLA-A*03:01 (setting [13]) is ≥ 20 µM; with HLA-A*31:01 (setting [13]) it was 209 nM.
Regarding YVHKAQGTG, in the experiment with HLA-A*02:01 [2] (setting [14]), the IC50 was ≥ 236 µM.
As for CIAVGMVTLY, the results for the Kd with HLA-A*01:01 [3] (setting [11]) and in the experiment with HLA-A*26:01 (setting [11]) were 1.38 µM and 483 nM, respectively.
Consider VKVLRPTPRG, for which, in the experiment with HLA-A*30:01 (setting [15]), the Kd worked out at 6080 nM.
As for ETPNMDVIGE, in the experiment with HLA-A*26:01 (source organism: Dengue virus 3 Martinique/1243/1999), the Kd stood at 1100 nM.
For LLKMPFRMV, in the experiment with HLA-B*08:01 (setting [8]), the Kd was 7.12 nM.
Consider AELRHLNPL, for which the Kd with HLA-B*40:01 was 44.2 nM.
For the sequence RSWQPPQPR, the Kd with HLA-A*03:01 (setting [16]) is ≥ 20 µM; in the experiment with HLA-A*31:01 (setting [16]) it was 35 nM.
For the sequence TTLTASLVML, in the experiment with HLA-A*01:01 [3] (setting [15]), the Kd stood at 1.05 µM.
Turning to RFLTHYFTK, the Kd with HLA-A*01:01 [4] was ≥ 20 µM.
FCIKILNPY: the Kd with HLA-A*26:01 (setting [11]) came out at 7700 nM.
For the sequence ALASFLFGF, the Kd in the experiment with HLA-B*15:01 (source organism: Pseudomonas aeruginosa) turned out to be 745 nM.
As to CMKSFFGWK, in the experiment with HLA-A*03:01 (source organism: Influenza A virus (A/duck/Fujian/17/2001(H5N1))), the Kd turned out to be 0.848 µM.
On to GSLLTCAKFK, for which the Kd was 96.8 nM in the experiment with HLA-A*11:01 [5] and 433 nM in the experiment with HLA-A*30:01 (setting [11]).
On to ALVCGLRQL, for which the IC50 with HLA-A*02:01 [2] (setting [14]) is 22.8 µM.
As for KVSSKHQLV, the Kd with HLA-A*30:01 (setting [8]) came to 14 nM.
With YLFIRKNVI, the Kd with HLA-B*08:01 (setting [10]) stood at 0.706 nM.
As for WMARRHAER, the values for the Kd with HLA-A*03:01 (setting [17]) and in the experiment with HLA-A*31:01 (setting [17]) were ≥ 20 µM and 13.9 nM, respectively.
In the case of SFRRFVNKL, in the experiment with HLA-B*08:01 (setting [10]), the Kd was 1380 nM.
Turning to CPRKRKTVE, the Kd with HLA-B*08:01 (setting [8]) worked out at 581 nM.
As to QAERTGEPDY, in the experiment with HLA-A*30:01 (setting [7]), the Kd was 6210 nM.
As for FYRKKFRPL, the Kd with HLA-B*08:01 (setting [8]) was found to be 0.0879 nM.
Regarding TSSDTYACW, the figures for the Kd with HLA-A*11:01 [6] and with HLA-B*58:01 (source organism: SARS-CoV1) were 19.4 µM and 14.5 nM, respectively.
For ATKNGNIFV, the Kd in the experiment with HLA-A*30:01 (setting [8]) worked out at 3.85 nM.
For GTTATITPQA, the Kd with HLA-A*30:01 (source organism: Dengue virus 1 Nauru/West Pac/1974) was determined as 839 nM.
Consider EMADITGSSP, for which the Kd with HLA-A*26:01 (setting [7]) is ≥ 46700 nM.
As for RSQSSTIIV, the Kd with HLA-A*30:01 (setting [8]) came out at 559 nM.
On to ETKQTGSASS, for which, in the experiment with HLA-A*26:01 (source organism: Dengue virus 2 Jamaica/1409/1983), the Kd was ≥ 25000 nM.
As for VVGKPYKEV, the Kd in the experiment with HLA-A*02:01 [1] (setting [18]) amounted to 1960 nM; in the experiment with HLA-A*69:01 (setting [18]) it was 0.605 µM.
Consider VTAKWLWGFL, for which the Kd with HLA-A*01:01 [3] (setting [11]) was found to be 17.7 µM.
On to SSPGPTTEA, for which the IC50 with HLA-A*02:01 [2] (setting [14]) amounted to 14.6 µM.
As for HTIENTTAN, the Kd in the experiment with HLA-A*26:01 (setting [11]) was 2290 nM.
Turning to FHMSKPSDL, in the experiment with HLA-B*39:01, the Kd was determined as 7.7 nM.
For KVLDGSPIS, the Kd in the experiment with HLA-A*30:01 (setting [8]) turned out to be 430 nM.
